From the domain aggregation screens of Martell et al. (2025)

Test: soluble fraction after stress (log2 fold change); higher = more stays soluble; pooled small domains, quantitative proteomics
Conditions: stress: 75 degC
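Also: 20 min heating vs room temperature control held 20 min.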

Sequence	soluble fraction (log2)
HMGGPTARQMEVLSLIAQGLPNKRIADELGIAERTVKLHITALLDSLGARNRTHLLVVARERGM	-2.16
HMQNSMTTTPDVVGKTGTFAEQMLKAANLNVQFAGDSSGKVVAQDVEAGTSAAYGTIITLTMDS	0.693
HMKDEHYLYIKARVDNGDYPHLSELKSAEEIELVMPKLLQDGIVEFNKETGEYTIGEDVKAEIERL	0.12
HMDPEEQIQSREIWEAVERALDGMQEKGRRVVIALLEGQTQLEVSRAAGISQPLISYYLKSFRTKVRTELG	-0.73
HMNAKNPRALAIQYVFKMQMGNFLHAKTDNQQQEQERIMTLFNEENKNTILPRWGKELLSYINRN	-0.74
HMLMNADVLVKYQEDHWIVISEKASQASDTFDKKEQAVERAKEIAKNKNSSVKVYKQDGTLQDTFDYS	0.351
HMQEPVYRPVFPGMTDADRQSAMEALKEGGFSPRLNRQTGQLEVDASGYHEAKIYLASQGIPAE	0.0608
HMRLYTQDVAVLNRDVIQGEVITSDMVTTVNVHKRTVPTGALNLSEIPGNVAKFNIPASIPITASMVTK	-0.0186
HMTTVSINTTGIITASTIRASSALYPPLYTTVQRDAGTFSAGAIIFNSTTSKLEFYDGTTWQSLPG	-0.339
HMKTEKYIQVISGTVNVRSGPGTSYAEIAKIDASQIYVVTAKEGEWLKISLANGTIGYVAGWLVKEVTG	-1.47
HMDSVTVPDISGYSPKAAEDSINNAGLKINEQGLSGSGDGQVVERTSPSAGSKVKKGDSVTVYYSKA	0.0423
HMGTTTPPATRKGKVTSSFLNVRSGPSTANAKVAELKQNAVVTIYETSSNGWHRIGVNQWVIGTNIQE	-1.2
HMIPDPPALGSNLHRERRRQQLSLDALAAASGVSKAMLSQIEADKVNPTIATMWKIAHALNIDFETLLRGE	-0.963
HMKNIRKQAIEAIDRIKNGNPIVISKNAKLIFKNIAKEANVSPTELHREFRDVMLYVNSLKAP	-0.346
HMRDDAIQQGREIVERELHRLDLAYTTLTDVLAKLEYEKLDDLYAAVGFGIRSPHSVAAAALQVERDKA	-0.322
HMGHLTWTVTGIGHERRARTVAEQMSSVFGVLEARASSAGTVYLEFEREKIDEGGLEASLKRMGVTRVV	-2.02
HMGMSQQKQSSTVRIIMQDISDANEGLMKMSQIIDAALAEGISETIVRNAISNLHRGGTIYESQTGTYQW	-0.196
HMEYMKQRLYDIIELFKRSFSPSFSEEEKKKLENVLQDDFLRKAYEQLSDEVFIEEKFREFDGY	-2.88
HMKRRSVIVSVVRAQVRQSADEAAAVVFEAEKNVSLDYLETMPGGWVKVRHRDGQTGFVRVNQIWG	-1.59

Sequence	soluble fraction (log2)
HMDEQKNREIALIENIQREDLNPYEKALGIRNLMDKYGLTQEEVSKRIGKSRSAVSNTVRILNLAPDVL	0.125
HMQVSDVTELRTILEKVITENESVATEFKEGKDAAMNFLVGQGMKATRGAADPALLKEIITGIL	-0.0525
HMEYYEDEELDRFRGRNSDQYSDAEIEEFNEILTTLRSEEVAGWIRSLQLREIALPDELKDDVILLVG	-0.903
HMLEAMDSDEAAKVIEQIVNERADFVRSKGMGAIGPLMGPVMGALRGKVDGKQANELLTAAIKKLL	0.334
HMVELNDNEKIVYDILKETEKIHIDELTAKVQLTQSILSGALVQMEMKGMIVSLPGKMYKLL	-1.65
HMANYTVNAYNNGGTGGSVNMRSGPSTNDGIVVRVPHGATVTGTKSGTWSYMTYNTYTGYMMSVYLDEQS	-1.57
HMNSRTLAYSDFIRKVDKGEVSAVVIDGEQVQVQTKDGQTFVTIQPQSEQMNDKLVEQLIAKDISVKAERQ	-0.0843
HMKPSNLTSDERTQLLAQLKTAMGSDQYNQLRRQVGEEKLLEYVLDNVPGIQEEILGNRAVQENIDLH	0.0107
HMINYYELLKLDMNAAHEEINDAIKLESEKNTIPEDQIRTMKSIFFNTEFKKEYDQRLMNFLLT	-0.671
HMKLQIQNIEIDKKISELAEGVSAEKLPFLAKLIDRSKLLNDKGEINEDSVKAAIEEVVKAFPDFK	0.0511
HMSAEDYLERIHELIESKGTAHVADIAQSLGVGKPSVTSMVQKLADEGYLNYEKYRSLTLTDSGRSIA	0.165
HMYVPEVPVPDLLGRSEEEAKNLIEDLGLVFKVSKREYSKEYDEGHVMEQSVDEGAKVKENYPVEVVISR	0.181
HMANKTVPNVSGKTVAEARAIIENQSLQVGEEKEEYSDSVAEGYIIRTNPTAGSQKKEQSKIDLVVSKG	0.128
HMIVDYPSFVGKTKQELEKWAKENNIIIRYRQLSVTASDKVKAQLPATTTYKRIMKGSSIEVELEL	-2.44
HMSWAGRRSLAALEARYRDETGISNLKIKHNGVLGYHIEVPSKSADKLMAPDSGFTHRQTLAGAVR	0.228
HMGTAESIRLFLSSGLIKGVGEALAGRIVDTFGTDTFDIIENHPELLAGVKGISHRLAMSIYESFSQHIGV	-1.13
HMKNIFDWLKQINYHKQPADSFTEKDWELFNSYMVHRFMSMNREFIEVVNYVQEMPPQEKILIYNIYREF	-2.16
HMRPTHYSGPSVIAMINNRVWFSDGSRLAPGEHHDDLEVVGLSPPWSAKVRWQGVEFDVGLFE	-2.35
HMEAISIYPNPTDNELHLSTSVQEVRIYNMYGIEVTRAANTDRLAVSHLPKGVYLVHADGAVLKMIK	-2.7
